The record followed here is patent US20060074222.

The data set relates to Pin1 R14A (SEQ ID NO:2).

Regarding phosphokinase A (PKA), the “MALDI-TOF of partial tryptic digest, mass gain of peptide 69-74” value is on record as “the peak corresponding to residues 69-74 of Pin1 gains ~80 Daltons after treatment with PKA” and the “proline isomerase activity (protease-coupled assay, rate constant of isomerization)” value is recorded as “phosphorylation of Pin1 R14A at position 71 by PKA inhibits the ability of the enzyme to isomerizes substrate”.
